19 sequences from the DeepSol protein solubility set can be followed below.

A short description of this series: soluble on expression in E. coli; label from the status in PepcDB or PDB records.
Regarding “MGEREGRVDSLLDTLYNLSEEKEAFFITQKMKKLFSVKLSKSKVILVAACLLLAGSGTAYAAHELTKQSVSVSINGKKKHIRTHANTVGDLLETLDIKTRDEDKITPAKQTKITADMDVVYEAAKPVKLTINGEEKTLWSTAKTVGALLDEQDVDVKEQDQIDPAIDTDISKDMKINIEPAFQVTVNDAGKQKKIWTTSTTVADFLKQQKMNIKDEDKIKPALDAKLTKGKADITITRIEKVTDVVEEKIAFDVKKQEDASLEKGKEKVVQKGKEGKLKKHFEVVKENGKEVSRELVKEETAEQSKDKVIAVGTKQSSPKFETVSASGDSKTVVSRSNESTGKVMTVSSTAYTASCSGCSGHTATGVNLKNNPNAKVIAVDPNVIPLGSKVHVEGYGYAIAADTGSAIKGNKIDVFFPEKSSAYRWGNKTVKIKILN”, the “soluble on expression in E. coli” value is recorded as “soluble”.

On to “MGEVKDLGMADHGGFDLKIGARVVLEDVKLGDSIAVNGTCLTVTEFNAEEFTVGLAPETLRKTSLEELKKGSPVNLERALQPVSRMGGHVVQGHVDGTGVIESMEVEGDSLWVKVKADKGLLKYIVPKGFVAVDGTSLTVVDVFDEESCFNFMMIAYTQQNVVIPTKKIGQKVNLEVDIMGKYVERLLTSGGFSKGN”, for which the “soluble on expression in E. coli” value is listed as “soluble”.

As to “MGFCNMLLLSNILLTAWLSTAKGEEILCTPPRVENGDGLNVKPVYKENERYHYKCKHGYVPKERGDAICTGSGWSSQPFCEEKTCSPPYILNGIYTPHRIIHRSDDEIRYECNYGFYPVTGSTVSKCTPTGWIPVPRCTLKPCEFPQFKYGRLYYEESLRPNFPVSIGNKYSYRCDNGFSPPSGYSWDYLRCTAQGWEPEVPCVRKCVFHYVENGDSAYWEKIYVQGQSLKVQCYNGYSLQNGQDIMTCTENGWSPPPKCIRIKTCSASDIHIDNGFLSESSYIYALNRETSYRCKQGYVTNTGEISGSITCLQNGWSPQPSCIKSCDMPVFENSITKNTRTWFKLNDKLDYECLVGFENEYKHTKGSITCTYYGWSDTPSCYDSTRTCGPPPPIDNGDITSLSLPEYEPLSSVDYQCQKYYLLKGNKTITCRNGKWSEPPTCLHACVIPENIMEAHNIILKWRHTEKIYAHSGEDIEFECKRGYQKARGSLPFRTKCINGTINYPTCV”, the “soluble on expression in E. coli” value is given as “soluble”.

On to “MGFLQRIGLLPQVTTTPTQHELLAPLLDTYIGVVTEMPTEELFAEQPHLRTVTTFIARAISSTSLHVYRRDSDGGRHRVRDSDLAKLMRRSSKTELMQDMLNGSILDLCLYDEFIWVAMEDSDSGEWELHRIPPTWIKQRKHSDPWTLEWMGIIDAKTGQQIKIPAERIIHVHGYNPTSTSRGLTPVVALRETLKEQLESAAYRGQLWRNGPRLGGVITRPKDAKWDSTSRKRFKAAWQSQYSGRGSGAGGTPILEDGMQFVPAHLKAQDEQVVEMTKLSLQTVASIYHVNPVMVGLLDNANYSNVREFRRSLYGDSLGPIIKQVEGVINEFLRPMIDDDDAVYVEFNLDEKLRASFEEKAAVTSTAVGGPWMTRNEARAMNNLPAIDGGEDLITPLNVTTENSESNNDVGLEEES”, for which the “soluble on expression in E. coli” value is on record as “not soluble”.

“MGFRLGIVGLPNVGKSTLFNALTKTMKAQAANYPFCTIEPNVGVVEVPDERLYKLAEIEKSQKITPTFIEFVDIAGLVKGASKGEGLGNQFLSHIREVDAVAMVLRAFEDENIVHVEGSVDPVRDKEIVEIELIAKDLESVNRRIEKVQKVAKGGDKKAREEMEHLNALKEILENLEPIRKYADKLPPETLEYAKKTLFLLTVKPVMYIANISEKDLPEGEGNPHVERIKEMANQENAPVVVISAELEAQLAGLSEEEQKEMLEAYGLKEPGLNKVIRTGYRLLDLITFFTAGEREARAWTVKRGTKAPQAAGKIHSDMERGFIAAEVISYEDLIKAGSWAKAKEQGLIRLEGKDYEIQDGDVVYFRFNV”: the “soluble on expression in E. coli” value is reported as “soluble”.

Take “MGGDFGPSVTVPAALQALNSNSQLTLLLVGNSDAITPLLAKADFEQRSRLQIIPAQSVIASDARPSQAIRASRGSSMRVALELVKEGRAQACVSAGNTGALMGLAKLLLKPLEGIERPALVTVLPHQQKGKTVVLDLGANVDCDSTMLVQFAIMGSVLAEEVVEIPNPRVALLNIGEEEVKGLDSIRDASAVLKTIPSINYIGYLEANELLTGKTDVLVCDGFTGNVTLKTMEGVVRMFLSLLKSQGEGKKRSWWLLLLKRWLQKSLTRRFSHLNPDQYNGACLLGLRGTVIKSHGAANQRAFAVAIEQAVQAVQRQVPQRIAARLESVYPAGFELLDGGKSGTLR”: the “soluble on expression in E. coli” value was “soluble”.

For “MGGMLRRLEVQNLAVIREAALDFAPGLNVLTGETGAGKSLLVDALALLLGGRAEGLIGPYGESLLVTAFFEGPPGEAVLSRRVGARSTPRVDGEVVTLKELQAEAERRLSLHAQHTALALLSPRRQREALDALLPEGLLAAYQEAYARREALLKEKAALEESLKARAEREDLLRYQIREIEEARVRPGEEEELLALAERLRHLETIRERLARALALLTEREAQDLLALAAKEVRAAARHDPALEALAEELSGAAEAVRAVARELEDHLEGLDLDPEELDRVEARLSLLERLKRKYGPTLADVLAHAQKAREELARMEGGEERLSEVERLLKALHEEVEARGQALRRAREEAARRLTEGMVRELPALGLAGARFAVVLEPLPEPGPQGLEAVAFRVAPNPNLPPAPLEALSGGELSRVALALALLTGTEAPTVVFDEVDAGVGGETAWRLAERLKRLAERRQVLVVTHLPQVAAVAQRHFRVTKTPEGVRVEPLAGEARVKEIARLLSGAYTQAALAHARELLEAQGAL”, the “soluble on expression in E. coli” value is given as “soluble”.

As to “MGGRQSSVTEERPRSNSVDTAQVRVSSQHSSSQRANVMTAAEFMQTMRNARFLSSSSDSNASEDDAGPSHSTTHGNRSRGLHATPGRLHGHHSRRSVPVFMMDMKCPVCHKVVPSDDADIHLVMCLTRPKITYNDDVLKDDKGECSICLEDLEAGHKIARLPCLCIYHKQCIDDWFKRKNCCPEHPGDD”, the “soluble on expression in E. coli” value is listed as “not soluble”.

Regarding “MGGSHHHHHHGMASALERYAAALEEVADGARQQERHYQLLSALQSLVKELPSSFQQRLSYTTLSDLALALLDGTVFEIVQGLLEIQHLTEKSLYNQRLRLQNEHRVLRQALRQKHQEAQQACRPHNLPVVQAAQQRELEAVEHRIREEQRAMDQKIILELDRKVADQQSTLEKAGVAGFYVTTNPQELMLQMNLLELIRKLQQRGCRAGNAALGLGGPWQSPAAQCDQKGSPVPP”, the “soluble on expression in E. coli” value was “not soluble”.

For the sequence “MGGSHHHHHHGMASALVKSRLNSWFQHRPPGASPERYLGLPGSLKWEDRGPSGQGQGQFLIQQVTLKIPISIEFVFESGSAQAGGNQALPRLAGSLLTQALESHAEGFRERFEKTFQLKEKGLSSGEQVLGQAALSGLLGGIGYFYGQGLVLPDIGVEGSEQKVDPALFPPVPLFTAVPSRSFFPRGFLWDEGFHQLVVQRWDPSLTREALGHWLGLLNADGWIGREQILGDEARARVPPEFLVQRAVHANPPTLLLPVAHMLEVGDPDDLAFLRKALPRLHAWFSWLHQSQAGPLPLSYRWRGRDPALPTLLNPKTLPSGLDDYPRASHPSVTERHLDLRCWVALGARVLTRLAEHLGEAEVAAELGPLAASLEAAESLDELHWAPELGVFADFGNHTKAVQLKPRPPQGLVRVVGRPQPQLQYVDALGYVSLFPLLLRLLDPTSSRLGPLLDILADSRHLWSPFGLRSLAASSSFYGQRNSEHDPPYWRGAVWLNVNYLALGALHHYGHLEGPHQARAAKLHGELRANVVGNVWRQYQATGFLWEQYSDRDGRGMGCRPFHGWTSLVLLAMAEDY”, the “soluble on expression in E. coli” value is “not soluble”.

Regarding “MGHHHHHHENLYFQSHLYFQSHMDVAPLNLGMIAAYYYINYTTIELFSMSLNAKTKVRGLIEIISNAAEYENIPIRHHEDNLLRQLAQKVPHKLNNPKFNDPHVKTNLLLQAHLSRMQLSAELQSDTEEILSKAIRLIQACVDVLSSNGWLSPALAAMELAQMVTQAMWSKDSYLKQLPHFTSEHIKRCTDKGVESVFDIMEMEDEERNALLQLTDSQIADVARFCNRYPNIELSYEVVDKDSIRSGGPVVVLVQLEREEEVTGPVIAPLFPQKREEGWWVVIGDAKSNSLISIKRLTLQQKAKVKLDFVAPATGAHNYTLYFMSDAYMGCDQEYKFSVDVKEAETDSDSD”, the “soluble on expression in E. coli” value was “soluble”.

Take “MGHHHHHHENLYFQSHLYFQSHMYHDRRRTGFRQYETYMKQKQSADWQLDELLEELEALETQLNSSNGGDQLLLGVSGIPASSSRENVKSISTLPPPPPALSYHQTPQQPQLLHHHNNHLGYQNGIHQITSINSAASSCSSPDGDSAFGDSSSTESSNNRCRNSAFSSNDSCRDSLNTPSPTQVSPRNGELNAEEAKAQKIRQALEKMKEAKVTKIFVKFFVEDGEALQLLIDERWTVADTLKQLAEKNHIALMEDHCIVEEYPELYIKRVYEDHEKVVENIQMWVQDSPNKLYFMRRPDKYAFISRPELYLLTPKTSDHMEIPSGDQWTIDVKQKFVSEYFHREPVVPPEMEGFLYLKSDGRKSWKKHYFVLRPSGLYYAPKSKKPTTKDLTCLMNLHSNQVYTGIGWEKKYKSPTPWCISIKLTALQMKRSQFIKYICAEDEMTFKKWLVALRIAKNGAELLENYERACQIRRETLGPASSMSAASSSTAISEVPHSLSHHQRTPSVASSIQLSSHMMNNPTHPLSVNVRNQSPASFSVNSCQQSHPSRTSAKLEIQYDEQPTGTIKRAPLDVLRRVSRASTSSPTIPQEESDSDEEFPAPPPVASVMRMPPPVTPPKPCTPLTSKKAPPPPPKRSDTTKLQSASPMAPAKNDLEAALARRREKMATMEC”: the “soluble on expression in E. coli” value is listed as “not soluble”.

In the case of “MGHHHHHHGGHMSLITVMNRIGVKPEFAAQFEESFRNRAGLVDGMPGFIRNEVLKPTKPGDPYIVLTYWQDEPSFRAWTESDEFKQGHARSGSLPHDAFTGRPVLEVHDVLLSSDNEGGS”, the “soluble on expression in E. coli” value is “soluble”.

Turning to “MGHHHHHHHHHHSSGHIEGRHMIRLGYPCENLTLGATTNRTLRLAHLTEERVREKAAENLRDLERILRFNADHGFALFRIGQHLIPFASHPLFPYDWEGAYEEELARLGALARAFGQRLSMHPGQYVNPGSPDPEVVERSLAELRYSARLLSLIGAEDGVLVLHLGGAYGEKGKALRRFVENLRGEEEVLRYLALENDERLWNVEEVLKAAEALGVPVVVDTLHHALNPGRLPLEEALRLAFPTWRGRPRVHLASQDPKKRPGAHAFRVTREDWERLLSALPGPADVMVEAKGKEQGLATP”, the “soluble on expression in E. coli” value is “soluble”.

For “MGHHHHHHMPVVDSDGDAVQLNLGGNYPLYTIQSAAIGFRGGLSTLRKDACKSYVYEAPETDRGLPVGFSASATSQPVMQLGSRYKFSFSMPVPLICDTAWSIGKSETNGGISFQPITAGDYFYLNNFSWFEARSTEETGVYKLAACSCEFCKIACPEVGSFNVNGRTLLGIGGEHFTVQFQKFD”, the “soluble on expression in E. coli” value is on record as “soluble”.

As to “MGHHHHHHSHALKAGKTASGAGEVVRCLSEQSVAISRCAGGAGARLPALLDEQQVNVLLYDMNGCYSRLKELVPTLPQNRKVSKVEILQHVIDYIRDLQLELNSESEVGTPGGRGLPVRAPLSTLNGEISALTAEAACVPADDRILCR”, the “soluble on expression in E. coli” value is recorded as “not soluble”.

Consider “MGHHHHHHSHDDVIDKTLNYTRRKSNDIVYIGSLSKDKGVDILLELVKTFTKNGNDTIIHIVGKGLLYEKIFERIGEINKRVIYYGPQPLKRALQIASRASLGVVLTRPSYESLTTDPMKPKVYLAAHTPVILPEYFEISSYVNRFKAGMVVGKLKPSYILSKVKVALEDSNTLLKGAERLAKS”, for which the “soluble on expression in E. coli” value is recorded as “not soluble”.

For the sequence “MGHHHHHHSHGRLTLSAQHISHRPCLLSYSLLFWKVHHLFLEGFPCSPRLDEMSFHQFPQHPVHVSVVHLPIVYKGSMTQVSPH”, the “soluble on expression in E. coli” value is “not soluble”.

Consider “MGHHHHHHSHGTRSKLSRHGSGADSDYENTQSGDPLLGLEGKRFLELGKEEDFHPELESLDGDLDPGLPSTEDVILKTEQVTKNIQELLRAAQEFKHDSFVPCSEKIHLAVTEMASLFPKRPALEPVRSSLRLLNASAYRLQSECRKTVPPEPGAPVDFQLLTQQVIQCAYDIAKAAKQLVTITTREKKQ”, for which the “soluble on expression in E. coli” value is “soluble”.
